Molecular target: high-affinity mouse IL2 receptor on CTLL-2 cells (mouse (endogenous in CTLL-2))

aldesleukin (FDA-approved recombinant human IL2) (from UniProt P60568 21-133) (ligand)
CTLL-2 cell proliferation (WST-1 absorbance), EC50: 0.6 ng/mL

From article PMC9625839
